The assay deals with T1, His×6-YY1(wt) (human, UniProt P25490 1-414).
T1 construct: Yin Yang 1 (YY1), wild type; also called Yin Yang 1; source: bacteria, recombinant, purified
Nature of the assay: SPR; Biacore T200; about 12,000 RU of His×6-YY1(wt) immobilised by amine coupling on a CM5 chip; analytes at 62.5, 125, 250, 500 and 1000 nM. To be noted: both partners purified.

B1: His×6-YY1(260–414) (domain or fragment, human, UniProt P25490 260-414, looked up)
chain: LPPGGIPGIDLSDPKQLAEFARMKPRKIKEDDAPRTIACPHKGCTKMFRDNSAMRKHLHTHGPRVHVCAECGKAFVESSKLKRHQLVHTGEKPFQCTFEGCGKRFSLDFNLRTHVRIHTGDRPYVCPFDGCNKKFAQSTNLKSHILTHAKAKNNQ
notes: source: bacteria, recombinant, purified
As for B1, the binding result is reported as “binds”.

The values are drawn from PMC8996997, “YY1 Oligomerization Is Regulated by Its OPB Domain and Competes with Its Regulation of Oncoproteins” (Cancers, 2022).
